Experiments:
[1] = tested on: Sheep red blood cells (sRBC); experiment: Erythrocyte lysis assay with RBL granule extracts, haemoglobin release; assay type: cell-based; conditions: WT-Pfp at a 1/8 dilution
Experimental: Sheep red blood cells (sRBC) were washed three times then resuspended at 10^8/mL in 150 mM NaCl. For the assay, 50 ul of freeze/thawed granule extract [fraction #8 (see above)] was incubated with 20 μl of the sRBC suspension in the presence of 2 mM CaCl2 at 37° C. for 30 minutes in v-bottom 96 well plates. For maximal haemoglobin release, H2O was used to lyse the red blood cells. Plates were centrifuged at 1500 rpm for 5 minutes and the haemoglobin released into the supernatant was estimated by measuring the optical density at 405 nm. Cell lysis was expressed as a percentage of maximal haemoglobin release.

[2] = Storage stability of purified recombinant perforin at 4° C.; conditions: purified recombinant human perforin, storage at 4° C.
[3] = tested on: sheep RBC membranes; experiment: Calcium-dependent membrane binding of recombinant perforin; conditions: 1 mM CaCl2, sheep RBC
Experimental: (§1) Perforin cDNA was cloned into the pFastBac vector and overexpressed in Sf-21 cells cultured in SF900-II SFM medium using a Bac-to-Bac kit (Invitrogen) and perforin was purified, all according to the manufacturer's instructions. Small amounts of recombinant WT and the G428E perforin mutant protein were obtained.
To study the calcium-dependent membrane binding of perforin, 2×10^6 sheep RBCs were resuspended in 200 μL 20 mM Hepes-150 mM NaCl buffer (pH 7.4) supplemented with 1 mM CaCl2. An aliquot of the purified perforin was added to the cell suspension for 5 min on ice. The cells were pelleted at 16,000 g for 10 s, the supernatant promptly removed, and the cells lysed in ice cold water. The lysate was centrifuged for 20 min at 16,000 g at 4° C. The pellet was washed once, dissolved in SDS-PAGE loading buffer, and analyzed by Western blotting.

[4] = tested on: Jurkat cells; experiment: Lysis of Jurkat cells by RBL granule extracts, 4 hour 51Cr release; assay type: cell-based; conditions: granules diluted 1/32
Experimental: WT-Pfp, P5-Pfp or P6-Pfp was isolated from the RBL granules by nitrogen caviatation and percoll density fractionation of the cellular contents as described by Davis et al (J Immunol Methods. 2003, 276(1-2):59-68). RBL cells (1×10^9) were washed three times in PBS, then resuspended at 1×10^8/ml in relaxation buffer (100 mM KCL, 3.5 mM MgCl2, 1 mM PIPES pH 6.8, 1.25 mM EGTA) and lysed in a nitrogen cavitation apparatus at 450 psi for 20 minutes at 4° C. on a rotating platform. The cell lysate was collected following sudden decompression, and the nuclei removed by centrifugation at 2000 rpm for 10 minutes at 4° C. The nuclei were washed twice with 1 ml relaxation buffer and the supernatants were pooled with the supernatant from the first wash. The pooled supernatants were centrifuged at 2000 rpm for a further 5 minutes to remove all cell debris. A 40% percoll density gradient was then formed by mixing 8 ml of adjusted percoll (45 ml percoll and 5 ml 10× relaxation buffer) with 12 ml of relaxation buffer, containing lmM ATP. 5 ml of cell lysate was loaded onto each gradient and centrifuged at 20,000 rpm for 35 minutes at 4° C. The cytotoxic granules, which migrate to the dense region of the gradient, were collected by harvesting 1 ml fractions from the bottom of the gradient using a long spinal tap needle attached to a syringe. The fractions were concentrated (individually) in an ultracentrifuge (Beckman Coulter) at 100,000 rpm for 3 hours at 4° C. and the granules obtained from the surface of the pelleted percoll by washing them into a small volume of resuspension buffer. To release the perforin, the granules were disrupted by resuspension in an equal volume of 2 M NaCl and three cycles of freezing in liquid nitrogen and thawing in a 37° C. waterbath.
Jurkat cells were labelled with 50 μCi ^51Chromium in 100 ul unsupplemented RPMI medium at 37° C. for 1 hour. ^51Cr-labelled cells were then resuspended in HBSS buffer (CSL Ltd.) with or without 2 mM EGTA. […] Granule fraction #8 (determined by western analysis to contain the highest perforin content) was serially diluted in HE buffer and incubated with target cells in a final volume of 200 μl, for 4 hours at 37° C. The spontaneous release of ^51Cr was determined by incubating the target cells with HE buffer alone and the maximum release was determined by adding HCl to a final concentration of 1 M. After 4 hours, the plates were centrifuged at 1500 rpm, 100 μl of supernatant was harvested and the released radioactivity was measured in a Wizard 1470 Gamma counter. Cytotoxicity was expressed as a percentage specific ^51Cr release after subtracting spontaneous release. The percent specific lysis was calculated as follows: 100× [(experimental release—spontaneous release)/(maximum release—spontaneous release)].

[5] = Lytic activity of purified recombinant (baculovirus) perforin; assay type: biochemical; conditions: baculovirus expression system
Source text: as §1

B1: WT-Pfp: wild type mouse perforin, recombinantly expressed; in b333 WT perforin is recombinant human (protein)
chain: PCYTATRSECKQKHKFVPGVWMAGEGMDVTTLRRSGSFPVNTQRFLRPDRTCTLCKNSLMRDATQRLPVAITHWRPHSSHCQRNVAAAKVHSTEGVAREAAANINNDWRVGLDVNPRPEANMRASVAGSHSKVANFAAEKTYQDQYNFNSDTVECRMYSFRLVQKPPLHLDFKKALRALPRNFNSSTEHAYHRLISSYGTHFITAVDLGGRISVLTALRTCQLTLNGLTADEVGDCLNVEAQVSIGAQASVSSEYKACEEKKKQHKMATSFHQTYRERHVEVLGGPLDSTHDLLFGNQATPEQFSTWTASLPSNPGLVDYSLEPLHTLLEEQNPKREALRQAISHYIMSRARWQNCSRPCRSGQHKSSHDSCQCECQDSKVTNQDCCPRQRGLAHLVVSNFRAEHLWGDYTTATDAYLKVFFGGQEFRTGVVWNNNNPRWTDKMDFENVLLSTGGPLRVQVWDADYGWDDDLLGSCDRSPHSGFHEVTCELNHGRVKFSYHAKCLPHLTGGTCLEYAPQGLLGDPPGNRSGAVW
Question: Which “lysis of sRBC by disrupted granules (haemoglobin release)” value [1] does the source give for B1 here?
Answer: almost complete RBC lysis

Question: And the “stability of lytic activity on storage” value [2]?
Answer: stable under these storage conditions for several months

Question: What about the “calcium-dependent plasma membrane binding” value [3] of the same molecule?
Answer: essentially all the added perforin bound

Question: And the “specific lysis of Jurkat cells by granules” value [4]?
Answer: approximately 65%

B2: recombinant human A91V: recombinant human A91V perforin from the baculovirus expression system (protein, UniProt P14222 22-555, looked up, variant A91V)
Perforin-1: PCHTAARSECKRSHKFVPGAWLAGEGVDVTSLRRSGSFPVDTQRFLRPDGTCTLCENALQEGTLQRLPLVLTNWRAQGSGCQRHVTRAKVSSTEAVARDAARSIRNDWKVGLDVTPKPTSNVHVSVAGSHSQAANFAAQKTHQDQYSFSTDTVECRFYSFHVVHTPPLHPDFKRALGDLPHHFNASTQPAYLRLISNYGTHFIRAVELGGRISALTALRTCELALEGLTDNEVEDCLTVEAQVNIGIHGSISAEAKACEEKKKKHKMTASFHQTYRERHSEVVGGHHTSINDLLFGIQAGPEQYSAWVNSLPGSPGLVDYTLEPLHVLLDSQDPRREALRRALSQYLTDRARWRDCSRPCPPGRQKSPRDPCQCVCHGSAVTTQDCCPRQRGLAQLEVTFIQAWGLWGDWFTATDAYVKLFFGGQELRTSTVWDNNNPIWSVRLDFGDVLLATGGPLRLQVWDQDSGRDDDLLGTCDQAPKSGSHEVRCNLNHGHLKFRYHARCLPHLGGGTCLDYVPQMLLGEPPGNRSGAVW
modifications: baculovirus-expressed
notes: recombinant human A91V perforin from the baculovirus expression system
Question: Which “stability of lytic activity on storage” value [2] does the source give for B2 here?
Answer: undetectable levels after 48 hours

Question: What about the “cytolytic activity of recombinant protein relative to WT perforin” value [5] of the same molecule?
Answer: < 10 % of WT

— patent US20070196337A1, “RECOMBINANT PERFORIN, EXPRESSION AND USES THEREOF” (priority 2004, published 2007)
